Measurements from US5405946A, “Recombinant protein S variants deficient in C4BP binding activity, compositions and therapeutic methods” (The Scripps Research Institute, priority 1992, dated 1995).

Experiments:
[1] = biological target: activated protein C (APC) (Homo sapiens, UniProt P04070); test: Activated partial thromboplastin time clotting assay, APC cofactor activity in PS- and C4BP-depleted plasma; format: biochemical
Experimental: (§1) An activated partial thromboplastin time clotting assay, using PS- and C4BP-depleted plasma, cephalin-kaolin reagent (Boehringer Mannhein, Indianapolis, Ind.), activated protein C (APC) and increasing amounts of recombinant PS variants was performed as described by Chang et al., Thromb. Haemost., 67:526-532 (1992). Briefly, to 50 ul PS and C4BP-depleted plasma (prepared as described by Koedam et al., J. Clin. Invest., 82:1236-1243 (1988)) was added 50 ul cephalin-kaolin reagent, 25 ul APC (Koedam et al., ibid) at 5 ug/ml and 15 to 45 ul recombinant PS variants (0-4 ug/ml) diluted in Michaelis buffer (28.5 mM sodium acetate, 28.5 mM sodium barbital and 116 mM NaCl, pH 7.35) and maintained for 3 minutes at 37C. Clotting was initiated by addition of 50 ul of 25 mM CaCl2 and the clotting time was measured in an Amelung-Coagulometer KC10.
(§2) The ability of the variants to serve as a cofactor for APC was tested in a clotting assay. The clotting assay was performed as described in Example 2D. To examine the effects of thrombin on recombinant PS variants APC cofactor activity, one ml of purified recombinant PS variants listed above and prepared in Example 1D (4-40 ug/ml) was maintained with 1/20 vol (50 ul) of thrombin-Sepharose for 1 hour at 37C. in 50 mM Tris-HCl pH 7.5 containing […]. Thrombin-Sepharose was removed by centrifugation. Supernatants containing the thrombin-treated PS were stored at -20C. until used.
(§3) The PS-dependent prolongation of the clotting time was measured in an activated partial thromboplastin time system using PS and C4BP depleted plasma, APC and cephalin-kaolin reagent as described in Example 2D. Increasing amounts of recombinant PS or the triple variant treated without or with thrombin were added. Clotting was initiated by the addition of CaCl2 and the clotting time was measured. The results are presented as the means of duplicate values.

thrombin = biological target: T1, thrombin (Homo sapiens, UniProt P00734); test: APC cofactor clotting assay after thrombin-Sepharose treatment of PS variants; format: biochemical; conditions: for Clotting Time After Treatment: after thrombin treatment, without protein S 72 ± 2 seconds
T1 construct: maintained with 1/20 vol (50 ul) of thrombin-Sepharose for 1 hour at 37C
Experimental: as §1, §2, §3

[2] = concentration 2.38 ug/ml, without protein S 72 ± 2 seconds
[3] = concentration 0.60 ug/ml, without protein S 72 ± 2 seconds
[4] = concentration 1.12 ug/ml, without protein S 72 ± 2 seconds

Chain of activated protein C (APC) (P04070 212-461 limits assumed): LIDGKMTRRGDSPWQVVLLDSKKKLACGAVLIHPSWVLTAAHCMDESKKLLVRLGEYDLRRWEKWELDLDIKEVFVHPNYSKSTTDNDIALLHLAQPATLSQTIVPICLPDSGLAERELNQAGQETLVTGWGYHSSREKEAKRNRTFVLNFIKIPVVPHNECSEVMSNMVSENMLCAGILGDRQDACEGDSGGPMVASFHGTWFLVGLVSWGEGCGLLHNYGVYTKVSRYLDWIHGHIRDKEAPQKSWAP
Chain of activated protein C (APC) (P04070 43-197 limits assumed): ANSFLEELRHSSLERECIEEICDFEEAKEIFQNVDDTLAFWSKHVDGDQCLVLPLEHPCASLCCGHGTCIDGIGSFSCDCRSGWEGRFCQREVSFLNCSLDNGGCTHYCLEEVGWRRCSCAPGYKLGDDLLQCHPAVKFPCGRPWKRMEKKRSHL

**Q.** With “rPS wild-type: recombinant wild-type full length human protein S expressed in C127I cells [reference compound]” as the molecule, how does the “Clotting Time” value [1, 2] read?
**A.** 91 s

**Q.** What about the “Clotting Time” value ([1]; final conc. 2.4 ug/ml, basal clotting 80) of the same molecule?
**A.** 116 s

**Q.** What about the “Clotting Time After Treatment” value (thrombin; concentration 2.38 ug/ml) of the same molecule?
**A.** 70 s

**Q.** And the “APC cofactor activity after treatment with thrombin” value (thrombin; thrombin-Sepharose 1 hour at 37C)?
**A.** significantly decreased

B1: R49L variant: recombinant protein S single variant in thrombin-sensitive domain, arginine 49 replaced by leucine (protein, UniProt P07225 42-676, looked up, variant R49L)
Vitamin K-dependent protein S: ANSLLEETKQGNLERECIEELCNKEEAREVFENDPETDYFYPKYLVCLLSFQTGLFTAARQSTNAYPDLRSCVNAIPDQCSPLPCNEDGYMSCKDGKASFTCTCKPGWQGEKCEFDINECKDPSNINGGCSQICDNTPGSYHCSCKNGFVMLSNKKDCKDVDECSLKPSICGTAVCKNIPGDFECECPEGYRYNLKSKSCEDIDECSENMCAQLCVNYPGGYTCYCDGKKGFKLAQDQKSCEVVSVCLPLNLDTKYELLYLAEQFAGVVLYLKFRLPEISRFSAEFDFRTYDSEGVILYAESIDHSAWLLIALRGGKIEVQLKNEHTSKITTGGDVINNGLWNMVSVEELEHSISIKIAKEAVMDINKPGPLFKPENGLLETKVYFAGFPRKVESELIKPINPRLDGCIRSWNLMKQGASGIKEIIQEKQNKHCLVTVEKGSYYPGSGIAQFHIDYNNVSSAEGWHVNVTLNIRPSTGTGVMLALVSGNNTVPFAVSLVDSTSEKSQDILLSVENTVIYRIQALSLCSDQQSHLEFRVNRNNLELSTPLKIETISHEDLQRQLAVLDKAMKAKVATYLGGLPDVPFSATPVNAFYNGCMEVNINGVQLDLDEAISKHNDIRAHSCPSVWKKTKNS
**Q.** With B1 as the molecule, how does the “Clotting Time” value [1, 3] read?
**A.** 80 s

**Q.** And the “Clotting Time After Treatment” value (thrombin; concentration 0.60 ug/ml)?
**A.** 72 s

B2: R60L variant: recombinant protein S single variant in thrombin-sensitive domain, arginine 60 replaced by leucine (protein, UniProt P07225 42-676, looked up, variant R60L)
Vitamin K-dependent protein S: ANSLLEETKQGNLERECIEELCNKEEAREVFENDPETDYFYPKYLVCLRSFQTGLFTAALQSTNAYPDLRSCVNAIPDQCSPLPCNEDGYMSCKDGKASFTCTCKPGWQGEKCEFDINECKDPSNINGGCSQICDNTPGSYHCSCKNGFVMLSNKKDCKDVDECSLKPSICGTAVCKNIPGDFECECPEGYRYNLKSKSCEDIDECSENMCAQLCVNYPGGYTCYCDGKKGFKLAQDQKSCEVVSVCLPLNLDTKYELLYLAEQFAGVVLYLKFRLPEISRFSAEFDFRTYDSEGVILYAESIDHSAWLLIALRGGKIEVQLKNEHTSKITTGGDVINNGLWNMVSVEELEHSISIKIAKEAVMDINKPGPLFKPENGLLETKVYFAGFPRKVESELIKPINPRLDGCIRSWNLMKQGASGIKEIIQEKQNKHCLVTVEKGSYYPGSGIAQFHIDYNNVSSAEGWHVNVTLNIRPSTGTGVMLALVSGNNTVPFAVSLVDSTSEKSQDILLSVENTVIYRIQALSLCSDQQSHLEFRVNRNNLELSTPLKIETISHEDLQRQLAVLDKAMKAKVATYLGGLPDVPFSATPVNAFYNGCMEVNINGVQLDLDEAISKHNDIRAHSCPSVWKKTKNS
**Q.** Which results are given for B2?
**A.** Clotting Time [1, 2]: 90 s; Clotting Time After Treatment (thrombin; concentration 2.38 ug/ml): 75 s

B3: R70I variant: recombinant protein S single variant in thrombin-sensitive domain, arginine 70 replaced by isoleucine (protein, UniProt P07225 42-676, looked up, variant R70I)
Vitamin K-dependent protein S: ANSLLEETKQGNLERECIEELCNKEEAREVFENDPETDYFYPKYLVCLRSFQTGLFTAARQSTNAYPDLISCVNAIPDQCSPLPCNEDGYMSCKDGKASFTCTCKPGWQGEKCEFDINECKDPSNINGGCSQICDNTPGSYHCSCKNGFVMLSNKKDCKDVDECSLKPSICGTAVCKNIPGDFECECPEGYRYNLKSKSCEDIDECSENMCAQLCVNYPGGYTCYCDGKKGFKLAQDQKSCEVVSVCLPLNLDTKYELLYLAEQFAGVVLYLKFRLPEISRFSAEFDFRTYDSEGVILYAESIDHSAWLLIALRGGKIEVQLKNEHTSKITTGGDVINNGLWNMVSVEELEHSISIKIAKEAVMDINKPGPLFKPENGLLETKVYFAGFPRKVESELIKPINPRLDGCIRSWNLMKQGASGIKEIIQEKQNKHCLVTVEKGSYYPGSGIAQFHIDYNNVSSAEGWHVNVTLNIRPSTGTGVMLALVSGNNTVPFAVSLVDSTSEKSQDILLSVENTVIYRIQALSLCSDQQSHLEFRVNRNNLELSTPLKIETISHEDLQRQLAVLDKAMKAKVATYLGGLPDVPFSATPVNAFYNGCMEVNINGVQLDLDEAISKHNDIRAHSCPSVWKKTKNS
**Q.** How did the “Clotting Time” value [1, 3] turn out when B3 was run?
**A.** 79 s

**Q.** What about the “Clotting Time After Treatment” value (thrombin; concentration 0.60 ug/ml) of the same molecule?
**A.** 75 s

B4: R49L/R60L variant: recombinant protein S double variant in thrombin-sensitive domain (protein, UniProt P07225 42-676, looked up, variant R49L R60L)
Vitamin K-dependent protein S: ANSLLEETKQGNLERECIEELCNKEEAREVFENDPETDYFYPKYLVCLLSFQTGLFTAALQSTNAYPDLRSCVNAIPDQCSPLPCNEDGYMSCKDGKASFTCTCKPGWQGEKCEFDINECKDPSNINGGCSQICDNTPGSYHCSCKNGFVMLSNKKDCKDVDECSLKPSICGTAVCKNIPGDFECECPEGYRYNLKSKSCEDIDECSENMCAQLCVNYPGGYTCYCDGKKGFKLAQDQKSCEVVSVCLPLNLDTKYELLYLAEQFAGVVLYLKFRLPEISRFSAEFDFRTYDSEGVILYAESIDHSAWLLIALRGGKIEVQLKNEHTSKITTGGDVINNGLWNMVSVEELEHSISIKIAKEAVMDINKPGPLFKPENGLLETKVYFAGFPRKVESELIKPINPRLDGCIRSWNLMKQGASGIKEIIQEKQNKHCLVTVEKGSYYPGSGIAQFHIDYNNVSSAEGWHVNVTLNIRPSTGTGVMLALVSGNNTVPFAVSLVDSTSEKSQDILLSVENTVIYRIQALSLCSDQQSHLEFRVNRNNLELSTPLKIETISHEDLQRQLAVLDKAMKAKVATYLGGLPDVPFSATPVNAFYNGCMEVNINGVQLDLDEAISKHNDIRAHSCPSVWKKTKNS
**Q.** What does the source list for B4?
**A.** Clotting Time [1, 4]: 88 s; Clotting Time After Treatment (thrombin; concentration 1.12 ug/ml): 80 s

B5: R60L/R70I variant: recombinant protein S double variant in thrombin-sensitive domain (protein, UniProt P07225 42-676, looked up, variant R60L R70I)
Vitamin K-dependent protein S: ANSLLEETKQGNLERECIEELCNKEEAREVFENDPETDYFYPKYLVCLRSFQTGLFTAALQSTNAYPDLISCVNAIPDQCSPLPCNEDGYMSCKDGKASFTCTCKPGWQGEKCEFDINECKDPSNINGGCSQICDNTPGSYHCSCKNGFVMLSNKKDCKDVDECSLKPSICGTAVCKNIPGDFECECPEGYRYNLKSKSCEDIDECSENMCAQLCVNYPGGYTCYCDGKKGFKLAQDQKSCEVVSVCLPLNLDTKYELLYLAEQFAGVVLYLKFRLPEISRFSAEFDFRTYDSEGVILYAESIDHSAWLLIALRGGKIEVQLKNEHTSKITTGGDVINNGLWNMVSVEELEHSISIKIAKEAVMDINKPGPLFKPENGLLETKVYFAGFPRKVESELIKPINPRLDGCIRSWNLMKQGASGIKEIIQEKQNKHCLVTVEKGSYYPGSGIAQFHIDYNNVSSAEGWHVNVTLNIRPSTGTGVMLALVSGNNTVPFAVSLVDSTSEKSQDILLSVENTVIYRIQALSLCSDQQSHLEFRVNRNNLELSTPLKIETISHEDLQRQLAVLDKAMKAKVATYLGGLPDVPFSATPVNAFYNGCMEVNINGVQLDLDEAISKHNDIRAHSCPSVWKKTKNS
**Q.** Which results are given for B5?
**A.** Clotting Time [1, 3]: 79 s; Clotting Time After Treatment (thrombin; concentration 0.60 ug/ml): 72 s

B6: R49L/R70I variant: recombinant protein S double variant in thrombin-sensitive domain (protein, UniProt P07225 42-676, looked up, variant R49L R70I)
Vitamin K-dependent protein S: ANSLLEETKQGNLERECIEELCNKEEAREVFENDPETDYFYPKYLVCLLSFQTGLFTAARQSTNAYPDLISCVNAIPDQCSPLPCNEDGYMSCKDGKASFTCTCKPGWQGEKCEFDINECKDPSNINGGCSQICDNTPGSYHCSCKNGFVMLSNKKDCKDVDECSLKPSICGTAVCKNIPGDFECECPEGYRYNLKSKSCEDIDECSENMCAQLCVNYPGGYTCYCDGKKGFKLAQDQKSCEVVSVCLPLNLDTKYELLYLAEQFAGVVLYLKFRLPEISRFSAEFDFRTYDSEGVILYAESIDHSAWLLIALRGGKIEVQLKNEHTSKITTGGDVINNGLWNMVSVEELEHSISIKIAKEAVMDINKPGPLFKPENGLLETKVYFAGFPRKVESELIKPINPRLDGCIRSWNLMKQGASGIKEIIQEKQNKHCLVTVEKGSYYPGSGIAQFHIDYNNVSSAEGWHVNVTLNIRPSTGTGVMLALVSGNNTVPFAVSLVDSTSEKSQDILLSVENTVIYRIQALSLCSDQQSHLEFRVNRNNLELSTPLKIETISHEDLQRQLAVLDKAMKAKVATYLGGLPDVPFSATPVNAFYNGCMEVNINGVQLDLDEAISKHNDIRAHSCPSVWKKTKNS
**Q.** Which results are given for B6?
**A.** Clotting Time [1, 4]: 86 s; Clotting Time After Treatment (thrombin; concentration 1.12 ug/ml): 80 s
